B1: KRT18 (parent)
chain: KSQDLAKIMADIRAQYDELARKNR
B2: NECAB1 (parent)
chain: NLDTEELCEYFSQHLGEYENVLAA

Variants of: B1
Assay: protein stability index of a GFP-peptide fusion (GPS, HEK-293T) (PSI 1-6); higher = more stable
Conditions: c terminus: a fixed tail appended
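Further: lentivirally expressed fusions sorted by FACS into six bins by GFP to DsRed ratio, PSI derived from sequencing read proportions per bin multiplied by bin number.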

Protein stability index of substitutions, site by site:
R21: E 2.14, M 2.83, S 2.95, V 1.91, K 2.9, N 2.96, I 3.24, H 3.26, C 2.68, Y 2.65, L 2.5, A 3.1, G 3.2, D 2.36, T 2.83, W 2.47, P 3.55, F 2.39, Q 2.59
A20: V 2.85, C 2.38, E 4.03, R 3.09, W 1.67, P 2.98, G 3.19, Q 2.94, M 2.51, I 2.47, K 3.19, N 2.93, H 3.12, S 2.87, F 2.69, Y 1.71, T 2.52, L 2.03, D 3.42
E18: Y 3.24, M 2.54, V 2.31, L 2.38, I 2.23, N 2.62, D 2.16, C 2.45, P 2.8, K 1.99, Q 2.68, H 2.76, W 1.96, R 2.39, S 2.72, G 2.66, A 2.59, T 2.35, F 2.74
K22: S 2.88, E 3.04, Q 2.92, W 1.88, Y 2.29, T 2.45, M 2.44, P 2.85, I 1.89, A 2.67, R 2.79, N 2.7, D 3.35, G 3.04, V 2.23, C 2.32, L 2.43, F 2.43, H 3.1
R24: W 2.13, C 1.92, D 3.81, T 3.13, A 3.33, Q 2.95, I 2.1, P 3.16, K 3.46, S 2.61, V 2.57, F 2.79, E 3.17, L 1.69, N 3.13, Y 2.01, M 3.07, G 3.57, H 2.81
L19: T 3.58, V 3.27, F 2.46, D 3.75, W 2.38, M 3.2, P 2.98, A 3.52, N 3.63, E 4.01, K 3.74, R 3.63, S 3.71, C 3.08, H 3.39, G 3.44, Q 3.59, I 3.12, Y 2.73
N23: G 2.61, C 3.06, Q 2.65, R 2.5, M 2.02, L 2.51, H 2.56, E 3.83, T 2.88, W 2.33, I 2.58, D 3.86, K 2.87, F 2.07, P 3.52, V 3.04, A 2.9, S 3.29, Y 1.94
D17: N 2.65, G 2.72, T 2.27, P 3.16, V 2.2, F 2.14, R 2.61, K 2.87, E 1.85, Q 2.13, W 1.92, H 2.67, M 1.51, L 2.29, S 2.41, I 2.01, Y 2.37

Variants of: B2
Assay: as above
Conditions: c terminus: a fixed tail appended

Protein stability index, by site and new letter:
C8: N 4.18, V 3.04, T 3.62, M 3.41, F 3.26, A 2.98, K 3.9, E 4.36, G 4.56, P 4.44, W 3.28, S 3.83, L 2.86, Y 3.46, H 4.07, R 3.17, I 2.52, D 4.39, Q 3.52
D3: A 2.25, M 1.88, P 3.14, H 2.11, L 2.01, Q 1.94, R 1.59, I 1.41, W 2.12, V 1.53, G 1.48, T 2.57, F 2.36, S 2.55, Y 1.94, C 2.12, E 3.24, K 1.86, N 1.64
T4: V 2.12, I 2.41, M 2.66, P 3.56, Y 2.97, F 2.32, K 2.69, L 2.15, W 2.63, A 2.75, R 3.05, G 3.91, N 3.62, C 2.64, H 4.26, E 4.15, S 3.32, D 4.33, Q 3.59
E6: A 2.27, H 2, Y 2.46, T 2.34, R 1.8, I 2.13, N 2.42, S 1.92, G 1.81, F 2.41, K 2.08, Q 1.64, L 1.74, M 1.71, C 2.68, D 2.53, W 2.23, V 2.38, P 3.82
L7: M 4.26, C 3.85, N 4.63, Y 3.94, S 4.53, W 3.85, Q 4.13, R 4.49, F 3.55, G 4.79, A 4.43, T 4.42, H 4.63, E 4.77, D 4.92, K 4.7, V 4.59, I 3.01, P 4.29
Y10: F 3.17, K 4.33, L 4.08, N 4.58, H 4.12, G 4.44, D 4.99, A 4.25, E 4.69, I 3.97, M 4.18, C 4.46, P 4.47
N1: W 1.71, P 3.68, S 3.93, D 1.87, R 3.54, E 3.7, G 3.68, Q 3.41, K 3.33, C 2.67, L 2.53, F 1.68, I 2.66, H 3.35, Y 1.83, M 3.17, V 3.12, A 2.94, T 3.22
E9: V 1.93, G 2.97, P 3.97, C 2.55, W 1.77, I 2.47, L 1.91, H 2.38, S 2.04, N 2.21, M 1.9, T 2.3, F 1.8, D 3.15, Y 1.76, A 1.99, K 2.25, R 1.97, Q 2.05
E5: H 2.1, V 2.1, K 1.94, R 2.13, N 2.4, M 1.63, F 1.47, P 3.13, I 1.99, W 1.98, A 1.56, S 1.93, T 2.4, L 1.89, Q 1.97, C 1.92, D 3.04, G 1.99, Y 1.69
L2: E 4.97, I 2.23, P 1.8, G 3.85, M 3.46, A 2.99, Q 4.12, S 4.11, Y 2.78, F 3.05, T 3.52, H 3.52, K 3.9, W 2.21, D 4.72, C 2.25, N 3.72, V 1.79, R 4

— the supplement of paper PMC10567573
